# Reference: IntAct's records for PubMed 17595294
# B1: Glycine--tRNA ligase (Homo sapiens), P41250 (parent)
# chain: MPSPRPVLLRGARAALLLLLPPRLLARPSLLLRRSLSAASCPPISLPAAASRSSMDGAGAEEVLAPLRLAVRQQGDLVRKLKEDKAPQVDVDKAVAELKARKRVLEAKELALQPKDDIVDRAKMEDTLKRRFFYDQAFAIYGGVSGLYDFGPVGCALKNNIIQTWRQHFIQEEQILEIDCTMLTPEPVLKTSGHVDKFADFMVKDVKNGECFRADHLLKAHLQKLMSDKKCSVEKKSEMESVLAQLDNYGQQELADLFVNYNVKSPITGNDLSPPVSFNLMFKTFIGPGGNMPGYLRPETAQGIFLNFKRLLEFNQGKLPFAAAQIGNSFRNEISPRSGLIRVREFTMAEIEHFVDPSEKDHPKFQNVADLHLYLYSAKAQVSGQSARKMRLGDAVEQGVINNTVLGYFIGRIYLYLTKVGISPDKLRFRQHMENEMAHYACDCWDAESKTSYGWIEIVGCADRSCYDLSCHARATKVPLVAEKPLKEPKTVNVVQFEPSKGAIGKAYKKDAKLVMEYLAICDECYITEMEMLLNEKGEFTIETEGKTFQLTKDMINVKRFQKTLYVEEVVPNVIEPSFGLGRIMYTVFEHTFHVREGDEQRTFFSFPAVVAPFKCSVLPLSQNQEFMPFVKELSEALTRHGVSHKVDDSSGSIGRRYARTDEIGVAFGVTIDFDTVNKTPHTATLRDRDSMRQIRAEISELPSIVQDLANGNITWADVEARYPLFEGQETGKKETIEE
# partner: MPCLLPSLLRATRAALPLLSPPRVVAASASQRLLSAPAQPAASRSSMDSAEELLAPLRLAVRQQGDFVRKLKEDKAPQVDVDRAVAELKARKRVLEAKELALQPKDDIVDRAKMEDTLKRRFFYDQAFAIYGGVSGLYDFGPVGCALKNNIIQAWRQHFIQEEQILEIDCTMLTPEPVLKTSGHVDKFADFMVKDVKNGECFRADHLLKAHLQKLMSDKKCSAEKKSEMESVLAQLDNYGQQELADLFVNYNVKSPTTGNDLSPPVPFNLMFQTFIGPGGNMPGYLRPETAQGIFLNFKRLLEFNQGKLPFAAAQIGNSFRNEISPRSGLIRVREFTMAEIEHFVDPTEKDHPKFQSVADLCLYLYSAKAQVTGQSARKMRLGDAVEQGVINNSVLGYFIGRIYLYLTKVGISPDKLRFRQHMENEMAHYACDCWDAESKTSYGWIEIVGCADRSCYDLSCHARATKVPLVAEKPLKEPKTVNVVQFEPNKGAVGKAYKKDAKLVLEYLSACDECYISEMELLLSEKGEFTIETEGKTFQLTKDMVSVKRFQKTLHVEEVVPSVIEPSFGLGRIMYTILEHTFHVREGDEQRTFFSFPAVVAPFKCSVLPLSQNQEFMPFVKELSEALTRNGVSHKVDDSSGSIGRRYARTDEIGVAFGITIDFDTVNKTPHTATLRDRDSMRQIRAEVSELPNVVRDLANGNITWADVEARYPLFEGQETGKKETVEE
# Variants of: B1
# Details: with gars_mouse Gars1, Q9CZD3
row,effect of a mutation on the interaction,Variant
1,increasing interaction strength,G580R
2,disrupting interaction strength,L183P
3,disrupting interaction strength,G294R
4,increasing interaction strength,S644L
5,increasing interaction strength,D554N
